Measurements published in patent publication US12454572B2, “Methods of treating anemia in myelodysplastic syndromes” (Dana-Farber Cancer Institute, Inc., priority 2021, dated 2025).
Entries after “also recorded” stand apart in the source; their conditions may differ. Where two headings read alike, the source gives them in different places.

How the values were obtained:
[1] = tested on: MDS patients; conditions: cited from earlier work
[2] = tested on: human CD34+ stem cells; conditions: cited from earlier work
[3] = tested on: wild-type TH22 cells; assay: secreted IL-22 from in vitro polarized wild-type TH22 cells; type: cell-based, mouse; conditions: for secreted IL-22: pifithrin-α, p-nitro 1 μM, Nutlin-3 100 nM
Procedure: Single-cell suspensions of mouse spleens were prepared by pressing tissue through a 70-μm cell strainer followed by red blood cell lysis using PharmLyse. Total splenic CD4^+ T cells were isolated using CD4 T cell isolation kit (Miltenyi Biotec). Enriched CD4^+ T cells were then incubated with fluorochrome-conjugated antibodies to CD4, CD8, CD25, CD62L, and CD44 to purify naïve CD4^+ T cells using fluorescence activated cell sorting (FACS). In the presence of 1 μg/mL plate-bound anti-CD3ε and soluble 1 μg/mL anti-CD28, T cell polarizations were carried out in IMDM supplemented with 10% FBS, 2 mM L-glutamine, […] penicillin-streptomycin, HEPES (pH 7.2-7.6), non-essential amino acids, 100 μM β-mercaptoethanol (BME), and sodium pyruvate as follows—TH1 (20 ng/mL IL-12, 10 μg/mL anti-IL-4), TH2 (20 ng/mL IL-4, 10 μg/mL anti-IFN-γ), TH17 (30 ng/mL IL-6, 20 ng/mL IL-23, 20 ng/mL IL-1β, 10 μg/mL anti-IL-4, 10 μg/mL anti-IFN-γ), Treg cells (1 ng/mL TGF-β, 10 μg/mL anti-IL-4, 10 μg/mL anti-IFN-γ), and TH22 (30 ng/mL IL-6, 20 ng/mL IL-23, 20 ng/mL IL-1β, 10 μg/mL anti-IL-4, 10 μg/mL anti-IFN-γ, 400 nM FICZ). Pifithrin-α, p-Nitro and Nutlin-3a were purchased from Santa Cruz Biotechnology and Tocris Biosciences, respectively.
IL-22 in human samples was quantified using either Human IL-22 Quantikine ELISA Kit (D2200, R&D Systems) or SMCTM Human IL-22 High Sensitivity Immunoassay Kit (EMD Millipore, 03-0162-00) according to manufacturers' instructions. The SMC assay was read on a SMC Pro (EMD Millipore) instrument. The lower limit of quantification (LLOQ) of this immunoassay is 0.1 pg/mL. IL-22 in mouse samples was quantified using ELISA MAX™ Deluxe Set Mouse IL-22 (BioLegend, 436304). The LLOQ of this immunoassay is 3.9 pg/mL. S100A8 in human samples was quantified using Human S100A8 DuoSet ELISA (DY4570, R&D Systems).

[4] = tested on: Lin- BM cells; assay: in vitro erythropoiesis assay (erythroid differentiation of Lin- BM cells); type: cell-based, mouse; conditions: for p53 expression: culture treated with rIL-22 vs PBS
Procedure: Whole BM cells were labeled with biotin-conjugated lineage antibodies (cocktail of anti-CD3ε, anti-CD11b, anti-CD45R/B220, anti-Gr1, anti-CD5, and anti-TER-119) (BD Pharmingen) and purified using anti-biotin beads and negative selection on the AutoMACS Pro (Miltenyi). Purified cells were then seeded in fibronectin-coated (2 μg/cm^2) tissue-culture treated polystyrene wells (CORNING® BIOCOAT™ Cellware) at a cell density of 10^5/mL. Erythroid differentiation was carried out according to modified published protocols. The erythropoietic medium was IMDM supplemented with erythropoietin at 10 U/mL, 10 ng/mL stem cell factor SCF, PeproTech), 10 μM Dexamethasone (Sigma-Aldrich), 15% FBS, 1% detoxified BSA (StemCell Technologies), 200 μg/mL holotransferrin (Sigma-Aldrich), […] human insulin (Sigma-Aldrich), 2 mM L-glutamine, 0.1 mM β-mercaptoethanol, and penicillin-streptomycin. After 48 h, the medium was replaced by IMDM medium containing 20% FBS, 2 mM L-glutamine, 0.1 mM β-mercaptoethanol, and penicillin-streptomycin. 50% of the culture media was replaced after 48 h and cell density was maintained at 0.5×10^6/mL. Total culture period for the assay was 6 days. Recombinant mouse IL-22 (PeproTech/Cell Signaling) was used where indicated.

[5] = target: T1, IL-22 (Mus musculus, UniProt Q9JJY9); conditions: cited from earlier work
T1 sequence (Q9JJY9 34-179): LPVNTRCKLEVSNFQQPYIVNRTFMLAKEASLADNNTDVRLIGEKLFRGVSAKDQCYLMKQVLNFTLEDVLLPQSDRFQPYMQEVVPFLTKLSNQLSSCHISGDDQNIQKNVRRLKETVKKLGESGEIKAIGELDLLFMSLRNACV

[6] = target: T1, IL-22; assay: IL-22 neutralization with anti-IL-22 antibody in mice undergoing PhZ-induced stress erythropoiesis; type: in vivo; design: endogenous in cells; host or cells: living mice (wt C57BL/6J; Riok2f/+Vav1cre and Riok2+/+Vav1cre); conditions: for frequency of apoptotic erythroid progenitors/precursors: viable BM cells
Procedure: (§1) Phenylhydrazine (PhZ) was purchased from Sigma and injected intraperitoneally on 2 consecutive days (days 0 and 1) at a dose of 25 mg/kg. Peripheral blood was collected 3-4 days before the start of treatment and at day 4, 7 and 11. PhZ treatment experiments were carried out in 8-16 week-old mice.
(§2) Monoclonal anti-IL-22 (Clone IL22JOP) blocking antibody and isotype control IgG2a (Clone eBR2a) were purchased from Thermo Fisher Scientific. Mice were administered anti-IL-22 (50 μg/mouse) or isotype intraperitoneally every 48 h until the conclusion of the experiment. For recombinant IL-22 treatment, mice were injected with recombinant IL-22 (500 ng/mouse; PeproTech) intraperitoneally every 24 h until the conclusion of the experiment.
(§3) Mice were bled via the submandibular facial vein to collect blood in EDTA-coated tubes (BD MICROTAINER™ Capillary Blood Collector, BD 365974). Complete blood counts were obtained using the HemaVet CBC Analyzer (Drew Scientific) or Advia 120 (Siemens Inc.,) instruments.
as §1, with “at the” for “at a”, “25 mg/kg (sublethal model) or 35 mg/kg (lethal model).” for “25 mg/kg.”, “4, 7,” for “4, 7”, “in 8-12 week old” for “in 8-16 week-old”
(§4) Monoclonal anti-IL-22 (Clone IL22JOP) blocking antibody and isotype control IgG2aκ (Clone eBR2a) were purchased from Thermo Fisher Scientific. Mice were administered anti-IL-22 (50 μg/mouse) or isotype intraperitoneally every 48 h until the conclusion of the experiment. For recombinant IL-22 treatment, mice were injected with recombinant IL-22 (500 ng/mouse; PeproTech) intraperitoneally every 24 h until the conclusion of the experiment. Mice were administered these reagents at least five times before inducing PhZ-mediated anemia.

[7] = target: T1, IL-22; assay: anti-IL-22 antibody in naive, non-anemic wt C57BL/6J mice; type: in vivo; design: endogenous in cells; host or cells: living mice (wt C57BL/6J; Riok2f/+Vav1cre and Riok2+/+Vav1cre); conditions: healthy, anti-IL-22 vs isotype
Procedure: as §2, §3, §4

[8] = tested on: wild-type C57BL/6J mice; assay: recombinant IL-22 administration to wt C57BL/6J mice subsequently treated with PhZ; type: in vivo, mouse; conditions: for apoptosis of erythroid progenitors/precursors: in vivo
Procedure: as §1, §2, §3
as §1, with “at the” for “at a”, “25 mg/kg (sublethal model) or 35 mg/kg (lethal model).” for “25 mg/kg.”, “4, 7,” for “4, 7”, “in 8-12 week old” for “in 8-16 week-old”
as §4

[9] = tested on: Il22ra1f/fEporcre mice; assay: recombinant IL-22 administration to Il22ra1f/fEporcre mice subsequently treated with PhZ; type: in vivo, mouse; conditions: mice lacking the IL-22 receptor only on erythroid cells
Procedure: as §1, with “at the” for “at a”, “25 mg/kg (sublethal model) or 35 mg/kg (lethal model).” for “25 mg/kg.”, “4, 7,” for “4, 7”, “in 8-12 week old” for “in 8-16 week-old”
as §4

[10] = Riok2 sufficient (Riok2+/+Vav1cre) mice, PhZ-induced anemia, vs isotype
[11] = wt C57BL/6J mice undergoing PhZ-induced anemia, vs isotype

Molecule: Nc1cccc2c1CN(C1CCC(=O)NC1=O)C2=O (centres unmarked) [lenalidomide]
- extension of survival ([1]; HR-MDS group): 4-6 months
- extension of survival ([1]; LR-MDS patients): 14-17 months

Molecule: CC(C)n1cnc2c(NCCc3ccc(O)cc3)nc(-c3csc4ccccc34)nc21 [Stemregenin 1]
- increase in erythroid colonies ([2]; SR1-pretreated CD34+ cells vs untreated cells): 129 fold
- pluripotency of human CD34+ stem cells [2]: maintain
- ex vivo expansion of human HSCs ([2]; highest fold expansion seen in the erythroid lineage): promote

Molecule: COc1ccc(C2=N[C@@H](c3ccc(Cl)cc3)[C@@H](c3ccc(Cl)cc3)N2C(=O)N2CCNC(=O)C2)c(OC(C)C)c1 [nutlin-3]
- cell viability [3]: did not decrease
- secreted IL-22 [3]: increased

Molecule: N=c1sc2c(n1CC(=O)c1ccc([N+](=O)[O-])cc1)CCCC2 [pifithrin-α, p-nitro]
- secreted IL-22 [3]: decreased
- cell viability ([3]; viable cells by flow cytometry): did not decrease
- apoptosis induced by Riok2 haploinsufficiency ([4]; IL-22-free assay, pifithrin-α, p-nitro 1 μM, Lin- BM cells from Riok2f/+Vav1cre mice): inhibited

Molecule: etanercept
- efficacy in MDS patients ([1]; human, in vivo): ineffective

Molecule: anti-IL-22 (Clone IL22JOP): Monoclonal anti-IL-22 blocking antibody purchased from Thermo Fisher Scientific; used in Examples 2-16
- neutralization of IL-22 [5]: effectively neutralize
- PB RBCs ([6]; Riok2f/+Vav1cre mice, PhZ-induced anemia, anti-IL-22 50 μg/mouse i.p. every 48 h vs isotype): anti-anemic effect; also recorded: increase
- HCT ([6]; Riok2f/+Vav1cre mice, PhZ-induced anemia, vs isotype): anti-anemic effect; also recorded: increase
- frequency of apoptotic erythroid progenitors/precursors ([6]; Riok2f/+Vav1cre mice, PhZ): reduced
- anemia ([6]; Riok2 haploinsufficient (Riok2f/+Vav1cre) mice, vs isotype): partially reversed; also recorded: alleviated
- phenylhydrazine-induced anemia ([6]; Riok2 sufficient (Riok2+/+Vav1cre) mice): reversed
- HCT [6, 10]: anti-anemic effect; also recorded: increase
- PB RBCs [6, 10]: anti-anemic effect; also recorded: increase
- frequency of apoptotic erythroid progenitors/precursors ([6]; Riok2 sufficient mice, PhZ): reduced
- anemia ([6]; wild-type mice undergoing PhZ-induced stress erythropoiesis): alleviated
- HCT [6, 11]: significantly increased
- Hb [6, 11]: significantly increased
- PB RBCs [6, 11]: increases; also recorded: significantly increased; also recorded: faster
- frequency of RIII and RIV erythroid precursors in the BM ([6]; wt C57BL/6J mice, PhZ, vs isotype): increased
- HCT [7]: did not differ
- Hb [7]: did not differ
- PB RBCs [7]: did not differ

B1: rIL-22: recombinant IL-22 (PeproTech / Cell Signaling) (protein, UniProt Q9JJY9 34-179, looked up)
Interleukin-22: T1 sequence (Q9JJY9 34-179)
- BM erythroid progenitor/precursor cells (frequency and number) ([8]; 7 days after PhZ, vs PBS): decreased
- PB RBCs ([8]; rIL-22 500 ng/mouse i.p. every 24 h, then PhZ, vs PBS): decreased
- BM reticulocytes ([8]; rIL-22 i.p., PhZ): increase
- PB reticulocytes ([8]; rIL-22 i.p., PhZ): increase
- apoptosis of erythroid progenitors/precursors ([8]; rIL-22 i.p., PhZ): increased; also recorded: induced
- apoptosis of erythroid progenitors/precursors ([8]; rIL-22 i.p., PhZ, listed as recombinant IL-22): increase
- HCT ([8]; rIL-22 i.p., then PhZ, vs PBS): decreased
- Hb ([8]; rIL-22 i.p., then PhZ, vs PBS): decreased
- PhZ-induced (stress-induced) anemia ([8]; wt mice): exacerbates
- phenylhydrazine-induced anemia [9]: failed to exacerbate
- p53 expression [4]: upregulation
- p53 expression ([4]; listed as recombinant IL-22): induction
- terminal erythropoiesis ([4]; recombinant IL-22, dose response): dose-dependently decreased
